Here are results for eleven molecules from US20110263827A1 (AbbVie / Abbott, published 2011).

The chains are these.
B1: DVD755 (bispecific antibody)
VH: QVQLQESGPGLVKPSQTLSLTCTVSGYSISSDFAWNWIRQPPGKGLEWMGYISYSGNTRYQPSLKSRITISRDTSKNQFFLKLNSVTAADTATYYCVTAGRGFPYWGQGTLVTVSSASTKGPEVQLLESGGGLVQPGGSLRLSCAASGFTFSHYVMAWVRQAPGKGLEWVSSISSSGGWTLYADSVKGRFTISRDNSKNTLYLQMNSLRAEDTAVYYCTRGLKMATIFDYWGQGTLVTVSS
VL: DIQMTQSPSSMSVSVGDRVTITCHSSQDINSNIGWLQQKPGKSFKGLIYHGTNLDDGVPSRFSGSGSGTDYTLTISSLQPEDFATYYCVQYAQFPWTFGGGTKLEIKRTVAAPQSALTQPASVSGSPGQSITISCTGTSSDVGSYNVVSWYQQHPGKAPKLIIYEVSQRPSGVSNRFSGSKSGNTASLTISGLQTEDEADYYCCSYAGSSIFVIFGGGTKVTVLG
notes: DVD-Ig; HC S, LC S; variable parts only
B2: DVD330 (bispecific antibody)
VH: EVQLVESGGGLVQPGGSLRLSCAASGFTFSIYSMNWVRQAPGKGLEWVSYISSSSSTIYYADSVKGRFTISRDNAKNSLYLQMNSLRDEDTAVYYCARDRGDFDAFDIWGQGTMVTVSSASTKGPQVQLQESGPGLVKPSQTLSLTCTVSGYSISSDFAWNWIRQPPGKGLEWMGYISYSGNTRYQPSLKSRITISRDTSKNQFFLKLNSVTAADTATYYCVTAGRGFPYWGQGTLVTVSS
VL: DIQMTQSPSSLSASVGDRVTITCQASQDITNYLNWYQQKPGKAPKLLIYDASNLETGVPSRFSGSGSGTDFTFTISSLQPEDIATYNCQQCENFPITFGQGTRLEIKRTVAAPDIQMTQSPSSMSVSVGDRVTITCHSSQDINSNIGWLQQKPGKSFKGLIYHGTNLDDGVPSRFSGSGSGTDYTLTISSLQPEDFATYYCVQYAQFPWTFGGGTKLEIKR
notes: as for B1
B3: DVD328 (bispecific antibody)
VH: QVQLQQWGAGLLKPSETLSLTCAVYGGSFSGYYWSWIRQPPGKGLEWIGEINHSGSTNYNPSLKSRVTISVETSKNQFSLKLSSVTAADTAVYYCARDKWTWYFDLWGRGTLVTVSSASTKGPQVQLQESGPGLVKPSQTLSLTCTVSGYSISSDFAWNWIRQPPGKGLEWMGYISYSGNTRYQPSLKSRITISRDTSKNQFFLKLNSVTAADTATYYCVTAGRGFPYWGQGTLVTVSS
VL: DIEMTQSPDSLAVSLGERATINCRSSQSVLYSSSNRNYLAWYQQNPGQPPKLLIYWASTRESGVPDRFSGSGSGTDFTLTISSLQAEDVAVYYCQQYYSTPRTFGQGTKVEIKRTVAAPDIQMTQSPSSMSVSVGDRVTITCHSSQDINSNIGWLQQKPGKSFKGLIYHGTNLDDGVPSRFSGSGSGTDYTLTISSLQPEDFATYYCVQYAQFPWTFGGGTKLEIKR
notes: as for B1
B4: DVD772 (bispecific antibody)
VH: EVQLVESGGGLVQPGGSLRLSCAASGFTFSIYSMNWVRQAPGKGLEWVSYISSSSSTIYYADSVKGRFTISRDNAKNSLYLQMNSLRDEDTAVYYCARDRGDFDAFDIWGQGTMVTVSSASTKGPSVFPLAPQVQLQESGPGLVKPSQTLSLTCTVSGYSISSDFAWNWIRQPPGKGLEWMGYISYSGNTRYQPSLKSRITISRDTSKNQFFLKLNSVTAADTATYYCVTAGRGFPYWGQGTLVTVSS
VL: DIQMTQSPSSLSASVGDRVTITCQASQDITNYLNWYQQKPGKAPKLLIYDASNLETGVPSRFSGSGSGTDFTFTISSLQPEDIATYNCQQCENFPITFGQGTRLEIKRTVAAPSVFIFPPDIQMTQSPSSMSVSVGDRVTITCHSSQDINSNIGWLQQKPGKSFKGLIYHGTNLDDGVPSRFSGSGSGTDYTLTISSLQPEDFATYYCVQYAQFPWTFGGGTKLEIKR
notes: DVD-Ig; HC L, LC L; variable parts only
B5: DVD832 (bispecific antibody)
VH: B2 VH
VL: B4 VL
notes: DVD-Ig; HC S, LC L; variable parts only
B6: DVD802 (bispecific antibody)
VH: B4 VH
VL: B2 VL
notes: DVD-Ig; HC L, LC S; variable parts only
B7: DVD788 (bispecific antibody)
VH: EVQLLESGGGLVQPGGSLRLSCAASGFTFSHYVMAWVRQAPGKGLEWVSSISSSGGWTLYADSVKGRFTISRDNSKNTLYLQMNSLRAEDTAVYYCTRGLKMATIFDYWGQGTLVTVSSASTKGPSVFPLAPQVQLQESGPGLVKPSQTLSLTCTVSGYSISSDFAWNWIRQPPGKGLEWMGYISYSGNTRYQPSLKSRITISRDTSKNQFFLKLNSVTAADTATYYCVTAGRGFPYWGQGTLVTVSS
VL: QSALTQPASVSGSPGQSITISCTGTSSDVGSYNVVSWYQQHPGKAPKLIIYEVSQRPSGVSNRFSGSKSGNTASLTISGLQTEDEADYYCCSYAGSSIFVIFGGGTKVTVLGQPKAAPSVTLFPPDIQMTQSPSSMSVSVGDRVTITCHSSQDINSNIGWLQQKPGKSFKGLIYHGTNLDDGVPSRFSGSGSGTDYTLTISSLQPEDFATYYCVQYAQFPWTFGGGTKLEIKR
notes: as for B4
B8: DVD818 (bispecific antibody)
VH: B7 VH
VL: QSALTQPASVSGSPGQSITISCTGTSSDVGSYNVVSWYQQHPGKAPKLIIYEVSQRPSGVSNRFSGSKSGNTASLTISGLQTEDEADYYCCSYAGSSIFVIFGGGTKVTVLGQPKAAPDIQMTQSPSSMSVSVGDRVTITCHSSQDINSNIGWLQQKPGKSFKGLIYHGTNLDDGVPSRFSGSGSGTDYTLTISSLQPEDFATYYCVQYAQFPWTFGGGTKLEIKR
notes: as for B6
B9: DVD770 (bispecific antibody)
VH: QVQLQQWGAGLLKPSETLSLTCAVYGGSFSGYYWSWIRQPPGKGLEWIGEINHSGSTNYNPSLKSRVTISVETSKNQFSLKLSSVTAADTAVYYCARDKWTWYFDLWGRGTLVTVSSASTKGPSVFPLAPQVQLQESGPGLVKPSQTLSLTCTVSGYSISSDFAWNWIRQPPGKGLEWMGYISYSGNTRYQPSLKSRITISRDTSKNQFFLKLNSVTAADTATYYCVTAGRGFPYWGQGTLVTVSS
VL: DIEMTQSPDSLAVSLGERATINCRSSQSVLYSSSNRNYLAWYQQNPGQPPKLLIYWASTRESGVPDRFSGSGSGTDFTLTISSLQAEDVAVYYCQQYYSTPRTFGQGTKVEIKRTVAAPSVFIFPPDIQMTQSPSSMSVSVGDRVTITCHSSQDINSNIGWLQQKPGKSFKGLIYHGTNLDDGVPSRFSGSGSGTDYTLTISSLQPEDFATYYCVQYAQFPWTFGGGTKLEIKR
notes: as for B4
B10: DVD800 (bispecific antibody)
VH: B9 VH
VL: B3 VL
notes: as for B6
B11: DVD830 (bispecific antibody)
VH: B3 VH
VL: B9 VL
notes: as for B5

One test addresses T1, ErbB3 (UniProt P21860 20-643, limits assumed, biotinylated).
T1 construct: ELISA antigen
Kind of test: direct bind ELISA, C-term VD. (In general: ELISA stands for enzyme-linked immunosorbent assay.)
Turning to B1, the EC50 (usually the concentration needed to bring the measured effect to its halfway point) worked out at 27.7 nM. That is a double-digit nanomolar value.

Another test has as its target T2, EGFR (UniProt P00533 25-645, limits assumed, biotinylated).
T2 construct: ELISA antigen; construct not described
Briefly: direct bind ELISA, C-term VD.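 Further: ELISA with antibody or DVD-Ig preparations applied to target antigen-coated plates for 1 h at room temperature, TMB colour development, absorbance read at 450 nm.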
Molecule B2 came in with an EC50 of 224 nM.
Consider B3, for which a half-maximal effect (EC50) was put at 94.9 nM.
Molecule B4 yielded an EC50 of 77.2 nM.
In the case of B5, the concentration giving a half-maximal response (EC50) is 62.4 nM.
Same read-out and setting: under B6 stands 726 nM; under B7, 18 nM.
On the same count and under the same terms, then B8, with 19.3 nM; and B9, with 15.2 nM; and B10, with 67.3 nM.
As for B11, the EC50 was found to be 42.7 nM.

In the next test the target is T1, ErbB3. Briefly: direct bind ELISA, N-term VD.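 Further: antibody or DVD-Ig preparations bound to immobilized target antigen on ELISA plates, 1 h at room temperature, TMB detection read as absorbance at 450 nm.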
Turning to B2, a half-maximal effect (EC50) was put at 1.29 nM.
Molecule B3 had an EC50 of 1.14 nM.
Same read-out and setting: under B4 stands 31.4 nM.
The molecule B5 registered an EC50 of 1.19 nM.
The same measure, in the same setting: then B6, with 11.1 nM.
Still for that read-out and setting: under B7 stands 3.14 nM.
B8 had an EC50 of 3.32 nM.
The same measure, in the same setting: under B9 stands 1.55 nM.
Still for that read-out and setting: then B10, with 2.06 nM; and B11, with 1.43 nM.

Another test deals with T2, EGFR. Briefly: direct bind ELISA, N-term VD.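 Further: antibody or DVD-Ig preparations bound to immobilized target antigen on ELISA plates, 1 h at room temperature, TMB detection read as absorbance at 450 nm.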
For the molecule B1, the EC50 stood at 3.26 nM.
